The source of these data is the NTF2 design screens of Basanta et al. (2020).

The series in a line: protease stability score; higher = more stable; yeast display proteolysis, trypsin and chymotrypsin.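 Further: relative to predicted unfolded state with 0 unfolded-like and 1 meaning tenfold more protease.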
“DEHRELIKEMLERFERSLRTGDEHIQTEMMDPDAKIDINGVELHGRDWASRYIQKYKNVRIEVRTITIQGDKVDIHSTIIIGDKHHSMIIHARKVDGKWVLEEMWVE” showed a protease stability score of 0.613.
The result for “DEHRESLETALEIEIETMLTGDEDSFKRLADPHYRLDVNGVKYHGREAVRVYLEQFDYVEHIVSKDVLVQGDKVRWDVQLDGKYNGQRRRVRVDIISRKINGRWILEEIRIK” reads 0.748; that for “DEHRKHAEDIFRLWLKAVKTGDEEHILDLMDPHVRLIILVGDKEIHLHGREEMKKENERLRHEWGVDRIRLEITRLDVQGDKIHSDGIDIFNGRNFRVKHHMKVVNGRVEEIKIEFE”, 0.462.
To “DEHRKLIEELAEKLIEALWTGDERRIRELADPNVRMDYGEFKIHGRDLMVETLKHEMKKFKNVRLINHHVTVQGEFINIDMEVRFDGVSHRVEHNWDVVNGVVKEVRIEKN” belongs 1.09; to “DEHRRELKEAIEMMLTALYTGDEKILLELIDPNTRLDVNGRELHGRDDWVEETRRIKNLKFHVHHIDVQGEKIHVDGLVIFNGRERRVHYNAEKYDGRWILTHINVR”, 1.22; to “DEHTDAVETTWKRLLEDERTGNEDSLERLADPNYRVIINGKHYHGMEHSLHILSEWRITDHEIKDVEIQGEKAHIDGRFNGIIDGKHLNIHVLILIEKVDGRWIIKSVIFK”, -0.096.
The result for “DEHTDMTRRLAELFRHLIETGNWKELTKLADPNMRLEVGDKEMHGREKLAELWRRIKNVRISIRRVEVQGEKVHLDLELDVDGQRQKFSEHIDIVDGVMRDVNVQWE” reads 2.12; that for “DEHTDYIREILRLLSEVVRTGDEDSLRRLLDPDARIVINGVDLIGMEHWFRLMFEIRHFAEDSKLEHSEVQGDKVIAHGRYHGEYEFDGRRRRHDTEVEMHVHKIDGRWYVRSLSIR”, 1.72.
Consider “DEHTEDTRHLEEFMLRAIKTGDEHILKRLMDPNARNEQGDKHQHGMEIIAEEWSRIKNVKVIFHRVRIQGDKIDVDGELIVNGVTMRVEFYSRKIDGRWVIHSVHFE”, for which the protease stability score was determined as 1.17.
In turn, “DEHTEEAKHWVTRFIHALSTGDFEQIERLADPHVRVEIGDKEIHGMEFLSEHVLKFKGIRTNIRHIEIHYYDGRVNVEVDIDIHIGDKTVNSELHIHIEKVDGRWVITSLHIRTR” had a protease stability score of 1.46.
The result for “DEHTEHSKKLADLIMEWLKTGNEEILRKRMDPNTKIHIEVDGREENTHGWEEFERWLKELGIKHFELKHVHIQGDKSFVDGTLEVNGQRRRIIFIFIVVDGRIQSIRVIVI” reads 2.12; that for “DEHTHEAHKFLREYWSNLQTGDEEKIINLVDPRVRMIINGKELHGREEFSKALHDEYRRMGMTIQTFTLQHLEIQGEKVHADVEIITHYDGRHTSIHLHLIVQKINGRWLMREVEIR”, 1.32.
With “DEHTHEIEHMLRHFLETLETGDEERYDRLADPHTRIDIGDKHLHGREKAQKLWRHWWKRFDHIHHLHIHHLEAVDGVNHVELREDIRVDGRRVIIRSLLILVVIDGRLREVRVEER”, the protease stability score was determined as 0.496.
The result for “DEHTKEMKHFLKEWLHNFFTGNEERWAHLADPHVRSDINGVELHGWDLLFRKMRKHREDLGAPHIRDFHIHSMHVINGVIHIDGEIDVDVNGVRIRSRVEIHLNVVNGRNKSEHYHHI” reads 0.68.
In the case of “DEHTKFLEKLLRDWMESVLTGDEHLIKRYADPNVRLDFNGQQFHGRDSMVHLLKEWRIKHFKLDSFFAIDGVTFVDGESRGEVNGQETENRLHVEIFVVNGKVTHVKIRIL”, the protease stability score was 1.68.
To “DEHTKLLEDLVKILLFIRKTGDEDTFNKLFDPNVRLVQGDKTYHGRETFNKTMREWRIHHFEIKRSHFIGEWAEIDGHEDGDINGQKIRTDVEIILIIIDGRIKSIEYRPL” belongs 0.929.
The result for “DEHTRLMDRVSKELMHYRRTGDEHSLDHLLDPHVRLDQGDWEKHGMEEYIEFVRRVKNVKLRIHDITVDIVNGVVIVFIDGILHVNGVDITTRIHIYFRKVNGVWLVESLRYEVG” reads 0.373; that for “DEHTSRLERLAHLFFESWITGDFDALLKYLDPNVRIEQGDKHIHGREVMFEHLERLLKHWWFHEHRLRDVKSVNGVSHLHVHQRNEINGVELRYDFHIHLYIVDGRLKSMEFRIS”, 1.07.
The result for “DEIDEAIIEFFRLMLEWNETGDEEYIDTLIDPHTQLKIIYGDKDREFIGREEYFKIVLEWRIKEVRIHSIHTQGNKLNIDGEINGNIDGRDTKTRINIHFIVVNGRLKTITLRFE” reads 2.43.
The sequence “DEIDEISKQMVRDFVHSWRTGDWKVLRELADPHALIIFNGREFHGWEHILRVFLELIRRYKNARVDIEEVIVQGDKIHIHLRIDQGDKSHTVNIHIDIIDGKLKRLEIDVT” displayed a protease stability score of 2.27.
On to “DEIDELMEMMARILIRLWQTGDEETWSRLADPDVRVTIGEFHTHGMERALLIIQEIRRHWRIHHIHIHDMRVFENRSRVNGKVDGEIDGQKDVRETRIEVVLIDGRLQEVRVKTK”, for which the protease stability score is 0.91.
The result for “DEIDERLHFLMKRVLHLWETGDWDMWMNYADPHVRHEIIIGDKRYSLHGREEYAEELLRHHRHIRLHTIHITHIDVVNGRVELNGRVNGDINGQHVDVELYVELKVVDGRIESERMEFR” reads 0.412; that for “DEIDHRAREVAERILKSMLTGDFDTLRELMDPHVRVILSVNGRENHTVGREWFAHVVKEWIDRVDVHQIDVERVELQGEKVHMDTNLRIHYGDKSITRKTEIIIDVVDGRVHYVRFIIR”, 2.52.
The result for “DEIDNELKTALRRLLHTWMTGDEDSLERLADPNVRFHQGDKDMHGREHMVKWFKEMIDRFPNLRIHDFIISEVRFFDGKAELIGTVLRTYGDKTDEVDFTIISTKIDGQWRIHEIRIN” reads 1.26; that for “DEIEDELRTVYELTVKALTTGNEDLLRNYLDPDTRFIIDGRDLHGMDEINELWREWRIHIHDTKIHSIRTQGNFADVHGRLHGTFIFNGKIEHTTREVRLIFVKVNGRWVINSVVIR”, 1.63.
To “DEIEDHMREVREQLLRDLTTGDWKKMREMLDPHVRIHIGDFHDHGRESAEEWLRKFKGLTLRIHDVRVKIIDGRALVENDGELTYDGRRHRVRIHVYVTKVDGVWMVETLEIRIH” belongs 1.15; to “DEIEEDMRKSIEDVIKAHLTGDEKTYRRLFDPHVRIDIDGVDFHGWEESRRMLQEIRISIEDWKIERMEIQGDKIHIDSRVDLTVYIDGKKERDTIERHIILVKFDGRWTIESVDFR”, 1.37.
The sequence “DEIEEEAKEMTKRILEDIKTGDEDSIFKLMDPNVKLVVGEKIHIGRETASKFFRKHWEDLGITRVESHLRTTHLIDGRVHVHSETNWNGVRIEVIIEIEKVNGRWVIREIHIHMH” gave a protease stability score of 1.29.
With “DEIEEEVRKFAEIHSRDLMTGNFESFREQADPHVRVIINGREFHGWHFLFHWLQEMRIHRVRIEDVRVYGDKAILDTRVESHVDGRTFDLEFKLVLSKVDGRWRVHQIILR”, the protease stability score came out at 1.11.
“DEIEEIAREIAKELHHLILTGDEDRLNELMDPNVKFESIVNGRRIESIGRENVKEVLRRLLEKLGLDRFSFIRRDIKYFDGVIHIFGQLEIDGVRHETEIIIFIVNGKVKSIRIRIQ” returned a protease stability score of 1.14.
To “DEIEEKIETHIKILLHASRTGDWELNSHNADPHTRIDIDGVELHGMEHFFTIMKEMRMKEYTLHHIEVQGEKIRIRGELRGEWDGKEEVVDVILIIVKIDGKWLIKEVRFR” belongs 1.07; to “DEIEELSNRLLELLRHFLQTGDEDMLRKLMDPHVRIDIDGQDFHGRESAVKLLRFWIDHMRWKDRRLRHVRIQGNFIEIDTIEHGEINGREHDLTTHIIASKVNGRWVLHSILFR”, 1.81; to “DEIEEQSRRALHEYINKILTGDEKSLTDLMDPDARLIVGDKEVHGRKLVHEWMSQWTEHIRIKHVHLHDIEIIGEKVHLDMRLHGIINGKETEHKVELHMYKINGKWIIHTVKIL”, 2.04.
In the case of “DEIEERTKELMKIDLELLETGDEETLLHLLDPHVKIITWINGRRVQRVGRHIWVHWLRYLGIDHLHVDDVEVQGDKITFDMTIEINGRTHKAVLRSQVVDGKITSLEIEVR”, the protease stability score was found to be 1.63.
With “DEIEETIKHLMEEWETSMQTGDEDRIKELLDPHARLEIGEWEFIGRERVAHFLSRADHSEYRIRRIRMIGDKIDIRLEVRLHVNGREIRTETHLIILKINGRWFFKSTHIT”, the protease stability score turned out to be 1.62.
As for “DEIEEVFREYTERIVDMWKTGDEELTNRNMDPNARMRIDVNGRDLELHGRERWIEHFRELGIKYEEIRDVRLRLVGDKANLEIDGEVDVNGQKHHTSLIIHVEKINGKWVISRIIFFIR”, the protease stability score stood at 1.2.
The result for “DEIEHAVRLAYERWLHEFETGDEEETLRNADPDTMIVINGRHLHGREHFTRWLKRIDHQHMHHEDFTHIDHQGDKLHLNVHVSIEVEINGVRYVLEHENEIVQTKIDGQWILTYIIIR” reads 1.25.
To “DEIEHESEEILRMWLHAIKTGDEEFLKQYIDPHAKLDINGVEFHGREHIVRFIVELRMHDHRVQDSRKVGNKVILHTRVDSIIGDKRIDTHVTIIVRKIDGKWRLEEYRVS” belongs 2.55.
In turn, “DEIEHEVERVVREWMRAYITGDEDTLQHLLDPHVLSVIDGVNIHGMENVTEYLRRHLEKIKNVQIEDMRIHRLDIQGNKLDLDTRLHITFNGVPEVLETRLILTKIDGKWWMHQVIIN” displayed a protease stability score of 2.42.
The result for “DEIEHHDRIIHHLTLHAFFTGDESITEHLADPDVRLDIVQGDKFNHVIGREMVVQWLEEWWRRVKNARFRVHRVEVINGQVNLRVEVDINGKRVDFTLIIIVIDGKIRSQEVIFH” reads 1.67.
Sequence “DEIEHLIRRIMEEIVHVFETGDEEKLEELMDPNTIFIIGDKRYVGREAVDVLLRRADVMTRFHIKSMRTVGDKIDLNTSIHVHFDGVHREIDTHVIARKVDGRWHWDSVRVE” came in with a protease stability score of 1.2.
Sequence “DEIEHLVHWAVEVYRHVLETGNESDLFRLFDPHVKLDVNGKEIVGREDVIEFISREIKQFDHVKLRIHRIDFQGDFVEVEGRLIVRQGDKEIRHDVRIYAEKIDGQWNVKSLSFR” had a protease stability score of 2.48.
Regarding “DEIEHMIHEIFERWIKAWLTGDWRTIEKLFDPDVRVEINGVEIIGRELMSKVLIRKYDEMRSRVKLESEHAQGDKAHFNVNIILHIGDKTIERRSRIHIRIYNGRIHEVRVEED”, the protease stability score was 2.4.
The result for “DEIEKELTDVFWEWLHLHITGDEDRLRDLMDPDVRLIYGDKTAVGREEFEKMWRELRHRFDHIRNVQIHDKRIVGNKLEMDFNFDHEVNGRREHTRVKIVLITINGKLHAFRIEVE” reads 1.4; that for “DEIEKEMLKRARDILENWVTGDEDEFNRLADPNVRFELVYGDKSHSHHGMENLKKWLEEWTKRVDHFDLKIKSQRVVGDKAETETKLILNYDGRRFEHDTRIDVVVVNGRIKQIRVEIR”, 1.59; that for “DEIEKESERVMEKYFEDFITGDWETMWRQVDPHVKFRIGDKHFHGREQATRVYKEFLDELGVKVRRIHDFEFTLFDGRAYVHLDSTLRVNGRDHRLHITIIVEKINGRWRLHEFELRLH”, 0.367.
The result for “DEIEKHHRELIELLFHWWHTGDFDSFHRFADPDVKLDFNGVEIHGRERANEFMTRLKEEIRIDDVKLERVQVIDGRMIIHGRRDGNVNGQKEDREVELYVIAINGRIKSVEIRIR” reads 1.71.
